Values quoted from earlier work as cited in patent US10765706B2, “Method of stem cell delivery into the brain during chronic disease using blood brain barrier permeabilizers” (University of South Florida, priority 2015, dated 2020).

System: stroke patients
Conditions: acute stroke patients

B1: t-PA: thrombolytic agent, tissue plasminogen activator (protein, UniProt P00750 36-562, looked up)
Tissue-type plasminogen …: SYQVICRDEKTQMIYQQHQSWLRPVLRSNRVEYCWCNSGRAQCHSVPVKSCSEPRCFNGGTCQQALYFSDFVCQCPEGFAGKCCEIDTRATCYEDQGISYRGTWSTAESGAECTNWNSSALAQKPYSGRRPDAIRLGLGNHNYCRNPDRDSKPWCYVFKAGKYSSEFCSTPACSEGNSDCYFGNGSAYRGTHSLTESGASCLPWNSMILIGKVYTAQNPSAQALGLGKHNYCRNPDGDAKPWCHVLKNRRLTWEYCDVPSCSTCGLRQYSQPQFRIKGGLFADIASHPWQAAIFAKHRRSPGERFLCGGILISSCWILSAAHCFQERFPPHHLTVILGRTYRVVPGEEEQKFEVEKYIVHKEFDDDTYDNDIALLQLKSDSSRCAQESSVVRTVCLPPADLQLPDWTECELSGYGKHEALSPFYSERLKEAHVRLYPSSRCTSQHLLNRTVTDNMLCAGDTRSGGPQANLHDACQGDSGGPLVCLNDGRMTLVGIISWGLGCGQKDVPGVYTKVTNYLDWIRDNMRP
fraction of patients receiving the therapy with enhanced recovery: ⅓
